Experimental data from patent US20240053360A1 (EQUILLIUM, published 2024).

Molecular target: T1, cell surface CD6 on human T cells (CD4 and CD8 T cells of PBMCs / whole blood) (human, UniProt P30203 18-668)
T1 construct: whole, on cells
T1 sequence (looked up): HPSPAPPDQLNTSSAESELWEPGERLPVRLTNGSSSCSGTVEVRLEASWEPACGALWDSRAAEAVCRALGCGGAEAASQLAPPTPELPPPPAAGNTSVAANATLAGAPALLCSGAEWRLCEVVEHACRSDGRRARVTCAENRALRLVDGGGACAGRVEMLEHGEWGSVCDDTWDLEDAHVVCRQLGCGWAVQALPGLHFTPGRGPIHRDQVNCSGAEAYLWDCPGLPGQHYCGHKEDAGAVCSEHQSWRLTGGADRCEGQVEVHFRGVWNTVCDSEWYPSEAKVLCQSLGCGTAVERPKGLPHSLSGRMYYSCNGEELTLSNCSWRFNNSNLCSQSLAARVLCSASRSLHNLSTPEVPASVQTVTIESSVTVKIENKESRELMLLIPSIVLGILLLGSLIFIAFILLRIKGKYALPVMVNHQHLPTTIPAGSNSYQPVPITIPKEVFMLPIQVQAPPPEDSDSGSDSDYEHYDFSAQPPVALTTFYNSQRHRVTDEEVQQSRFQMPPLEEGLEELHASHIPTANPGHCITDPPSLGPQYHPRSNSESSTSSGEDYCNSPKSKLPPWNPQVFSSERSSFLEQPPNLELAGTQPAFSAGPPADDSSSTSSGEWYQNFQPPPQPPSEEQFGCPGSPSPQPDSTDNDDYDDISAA
Assay: flow cytometry, receptor occupancy on CD4 and CD8 T cells

B1: itolizumab (antibody, human IgG1, kappa, V domains shown)
VH: EVQLVESGGGLVKPGGSLKLSCAASGFKFSRYAMSWVRQAPGKRLEWVATISSGGSYIYYPDSVKGRFTISRDNVKNTLYLQMSSLRSEDTAMYYCARRDYDLDYFDSWGQGTLVTVSS
VL: DIQMTQSPSSLSASVGDRVTITCKASRDIRSYLTWYQQKPGKAPKTLIYYATSLADGVPSRFSGSGSGQDYSLTISSLESDDTATYYCLQHGESPFTLGSGTKLEIKR
notes: Humanized anti-CD6 monoclonal antibody; also called EQ001; ALZUMAB
- binding result: binds
